Measurements published in article PMC7958597, “In Vivo Biodistribution and Efficacy Evaluation of NeoB, A Radiotracer Targeted to GRPR, in Mice Bearing Gastrointestinal Stromal Tumor” (Cancers, 2021).
“And” between values parts separate entries of the source, which are not always exact repeats. Identical values can stand only once. Like-named read-outs stand apart in the source and are kept apart here.

Key:
[1] = Stability of the radiolabeled preparation by radio-HPLC (RCP); type: physicochemical; details: 24 h after labeling; Symmetry C18, H2O/acetonitrile 0.1% TFA gradient
Procedure: ^177Lu^3+ in aqueous 0.04 M HCl solution was purchased from ITG (Garding, Germany). Chemicals for radiolabeling were of trace metal® grade. Radiochemical purity (RCP) of each radiolabeled solution was determined using a high performance liquid chromatography (HPLC) apparatus (Shimadzu, France) equipped with NaI (Tl) scintillation detectors (LabLogic, UK). The radiolabeling was performed as previously described (25). For the biodistribution sub study, 92 nmol of NeoB was radiolabeled with 370 MBq of ^177LuCl3 and the reaction was then incubated at 95 °C for 7 min. The concentration was then adjusted at 200 pmol/100 µL (0.8 MBq) and a sterilizing filtration was performed. A similar protocol was employed for the therapy sub-study, using 20 nmol of NeoB and 1850 MBq of Lu-177. The concentration was then adjusted at 400 pmol/100 µL (37 MBq). A second solution of 800 pmol per 100 µL (37 MBq) was obtained by the addition of unlabeled NeoB peptide. A 0.22 µm sterile filtration was then performed. Radiochemical purity (RCP) was determined immediately after labeling and at 24 h by radio-HPLC analysis using an analytical reverse-phase column (Symmetry C18, 5 μm, 150 × 4.6 mm). A gradient elution was performed using solvent A (H2O, 0.1% TFA) and solvent B (acetonitrile, 0.1% TFA) as mobile phase at a flow rate of 1 mL/min.

[2] = system: SCID mice bearing GIST-882 tumors (GRPR expressing); assay: Biodistribution of [^177Lu]Lu-NeoB by organ sampling and gamma counting; type: in vivo
Procedure: (§1) All procedures were performed in accordance with the institutional guidelines and approved by the animal care and use committee of Grenoble University (APAFIS#6544-2016082615349282 v8). The study was performed on 6-weeks old male SCID mice (Charles River). A total of 82 mice were used, 42 for the biodistribution sub-study and 40 for the therapy sub-study. Mice were subcutaneously inoculated into the left flank with GIST-882 (2 to 4 × 10^6) in a 1:1 PBS/Matrigel® (Corning, Corning, NY, USA) mixture.
(§2) Biodistribution of [^177Lu]Lu-NeoB was evaluated when the tumor volume reached ~200 mm^3. The biodistribution was evaluated at 7 time points (1 h, 4 h, 4 h + block, 24 h, 48 h, 96 h, and 168 h). The compound was injected intravenously (100 µL/200 pmol/~0.8 MBq per mice). Moreover, an excess of 40 nmol unlabeled NeoB was co-injected in the mice of the 4 h + block condition. At the selected time point, mice were euthanized by CO2 inhalation, and the main organs and fluids were sampled and weighed. The activity was determined using a gamma well counter (Wizard^2 PerkinElmer, Waltham, MA, USA), the results were corrected for background, decay and sample weight, and the data were expressed as a % ID/g (percentage of injected dose per gram of tissue).

[3] = as above; type: in vivo, mice; details: male, mouse, iv, total radioactivity
Procedure: as §1, §2

PC-3 bearing mice = details: cited from earlier work
Text: In this study, we evaluate for the first time the theragnostic potential of [^177Lu]Lu-NeoB for tumor treatment by performing biodistribution and therapeutic studies in mice bearing GIST. In accordance with above mentioned finding, injected mass ranging from 200 to 800 pmol were employed. […] Indeed, in PC-3 be ...

GIST-882 tumor = assay: Therapeutic efficacy (tumor growth, survival without reaching limit tumor volume); type: in vivo, mice; details: for mice excluded due to tumor volume over the limit of 1500 mm^3: 100 days of follow-up, 5 out of 13 control mice reached the limit; for tumor volume in comparison to control group: 37 MBq i.v. once a week for 3 weeks, day 0-26
Procedure: as §1
(§3) Efficacy was evaluated on 40 mice when the tumor volume reached ~100 mm^3. Control mice were intravenously injected with saline (Control group, n = 13), whereas treated mice received either 400 pmol (400 pmol group, n = 13) or 800 pmol (800 pmol group, n = […]) of 37 MBq of [^177Lu]Lu-NeoB once a week for 3 weeks. Tumor size was recorded 3 times per week before and after therapy administration and 5 times per week during the 3 weeks of the therapy administration. When a tumor volume exceeding 1500 mm^3 the animal was removed from the study and euthanized by CO2 inhalation. Pancreas was then frozen, 10 µm-thick slices were stained using hemato-eosin saffron (HES) and subsequently analyzed by a histopathologist.

[4] = SPECT-CT quantification of tumor uptake; type: in vivo, mice; details: male, SCID, mouse, GIST-882 tumor, iv, total radioactivity, 37 MBq i.v., 24 h post injection, n = 3
Procedure: Dual single photon emission computed tomography and x-ray computed tomography (SPECT-CT) imaging were performed in a subset of 6 mice of the therapeutic efficacy sub-study (3 from 400 pmol group and 3 from 800 pmol group). Acquisitions were performed the day after [^177Lu]Lu-NeoB injection (24 h post injection). SPECT-CT acquisitions were performed using a dedicated camera (nanoscan SPECT/CT, Mediso, Budapest, Hungary). Animals were placed on a pathogen-free animal handling system (MulticellTM, Mediso, Budapest, Hungary) under gas anesthesia (isoflurane 1–2%). Whole body imaging was performed. SPECT duration was of approximately 35 min, and CT acquisition of 5 min (at 35 kvp). Acquisitions were reconstructed with Nucline software using Monte Carlo reconstruction and scatter and attenuation correction, corrected for decay and expressed as % injected dose per gram (% ID/g). Image analysis was performed using Vivoquant software (version 3.5, Invicro, Boston, MA, USA).

[5] = Tolerability in the efficacy sub-study (body weight, pancreas histology HES); type: in vivo, mice; details: 400 or 800 pmol, 37 MBq once a week for 3 weeks
Procedure: as §3

[6] = from time activity curve 1-168 h, 200 pmol i.v.

CC(C)CC(CC(C)C)NC(=O)[C@H](Cc1cnc[nH]1)NC(=O)CNC(=O)[C@@H](NC(=O)[C@H](C)NC(=O)[C@H](Cc1c[nH]c2ccccc12)NC(=O)[C@H](CCC(N)=O)NC(=O)[C@@H](Cc1ccccc1)NC(=O)COCC(=O)Nc1ccc(CNC(=O)CN2CCN(CC(=O)O)CCN(CC(=O)O)CCN(CC(=O)O)CC2)cc1)C(C)C [[^177Lu]Lu-NeoB, metal not drawn]
stability after labeling (radiochemical purity by radio-HPLC) [1]: remained stable | uptake in GIST tumor ([2]; 4 h pi, 200 pmol/~0.8 MBq i.v., mean ± SD): 19.1 ± 3.9 % ID/g | decrease of uptake in GIST tumor by co-injection of unlabeled NeoB ([2]; 4 h pi, 40 nmol unlabeled NeoB): > 98% | uptake in GIST tumor, 4 h + block ([2]; 4 h pi, co-injected with excess of 40 nmol unlabeled NeoB, mean ± SD): 0.3 ± 0.1 % ID/g | uptake in adrenals, blood, GIST tumor, large and small bowel, pancreas and stomach when co-injected with excess unlabeled NeoB ([2]; 4 h pi, p < 0.05, multiple t tests, Holm-Sidak): significantly reduced | tumor-to-pancreas ratio (maximum value) ([2]; at 168 h (1 week), mean ± SD): > 300 | half-life in pancreas [2, 6]: 2.41 h and 2.4 h | half-life of retention in GIST tumor [2, 6]: 40.19 h and 40 h | tissue uptake at 1 h ([3]; SCID, GIST-882 tumor, 200 pmol/mouse, 1 h pi, 200 pmol/~0.8 MBq i.v., mean ± SD, read-out: uptake in GIST-882 tumor): 21.6 ± 1.7 %ID/g | tissue uptake at 4 h ([3]; SCID, GIST-882 tumor, 200 pmol/mouse, 4 h pi, 200 pmol/~0.8 MBq i.v., mean ± SD, read-out: uptake in GIST tumor): 19.1 ± 3.9 %ID/g | tissue uptake at 24 h ([3]; SCID, GIST-882 tumor, 200 pmol/mouse, 24 h pi, 200 pmol i.v., mean ± SD): 13.4 ± 3.5 %ID/g | tissue uptake at 48 h ([3]; SCID, GIST-882 tumor, 200 pmol/mouse, 48 h pi, 200 pmol i.v., mean ± SD): 10.5 ± 1.6 %ID/g | tissue uptake at 96 h ([3]; SCID, GIST-882 tumor, 200 pmol/mouse, 96 h pi, 200 pmol i.v., mean ± SD): 5.9 ± 0.3 %ID/g | tissue uptake at 168 h ([3]; SCID, GIST-882 tumor, 200 pmol/mouse, 168 h pi, 200 pmol i.v., mean ± SD): 2.5 ± 0.7 %ID/g | tissue uptake at 4 h ([3]; SCID, GIST-882 tumor, 4 h pi, co-injected with excess of 40 nmol unlabeled NeoB, mean ± SD, read-out: uptake in GIST tumor, 4 h + block): 0.3 ± 0.1 %ID/g | tissue uptake at 1 h ([3]; SCID, bladder, 200 pmol/mouse, 1 h pi, 200 pmol/~0.8 MBq i.v., mean ± SD, read-out: uptake in bladder): 20.6 ± 19.7 %ID/g | tissue uptake at 4 h ([3]; SCID, large bowel content, 200 pmol/mouse, 4 h pi, 200 pmol/~0.8 MBq i.v., mean ± SD, read-out: uptake in large bowel content): 10 ± 3.5 %ID/g | tissue uptake at 1 h ([3]; SCID, pancreas, 200 pmol/mouse, 1 h pi, 200 pmol/~0.8 MBq i.v., mean ± SD, read-out: uptake in pancreas): 19.8 ± 2.6 %ID/g | tissue uptake at 4 h ([3]; SCID, pancreas, 200 pmol/mouse, 4 h pi, 200 pmol/~0.8 MBq i.v., mean ± SD, read-out: uptake in pancreas): 8.5 ± 2 %ID/g | tissue uptake at 4 h ([3]; SCID, pancreas, 4 h pi, co-injected with excess of 40 nmol unlabeled NeoB, mean ± SD, read-out: uptake in pancreas, 4 h + block): 0.1 %ID/g | tissue to tissue ratio ([3]; SCID, tumor and kidney, 200 pmol/mouse, all investigated time points 1-168 h): > 1 | tissue to tissue ratio at 96 h ([3]; SCID, tumor and kidney, 200 pmol/mouse, at 96 h, mean ± SD, read-out: tumor-to-kidney ratio (maximum value)): 112 ± 5 | tissue to tissue ratio at 48 h ([3]; SCID, tumor and liver, 200 pmol/mouse, at 48 h, mean ± SD, read-out: tumor-to-liver ratio (maximum value)): 54 ± 5 | tissue to tissue ratio at 168 h ([3]; SCID, tumor and pancreas, 200 pmol/mouse, at 168 h (1 week), mean ± SD, read-out: tumor-to-pancreas ratio (maximum value)): 309 ± 148 | excreta dose per gram or mL at 4 h ([3]; SCID, urine, 200 pmol/mouse, 4 h pi, 200 pmol/~0.8 MBq i.v., mean ± SD, read-out: uptake in urine): 216 ± 193 %ID/g | excreta dose per gram or mL at 1 h ([3]; urine, 200 pmol/mouse, 1 h pi, 200 pmol/~0.8 MBq i.v., GIST-882 bearing SCID mice, gamma counter, mean ± SD, read-out: uptake in urine): 600 ± 155 %ID/g | pancreas half-life (PC-3 bearing mice; 200 pmol): 11 h | tumor half-life in prostate tumors (PC-3 bearing mice; 200 pmol): 28 h | tumor-to-pancreas ratio (PC-3 bearing mice; as early as 4 h after injection of 200 pmol): > 1 | tumor regression (GIST-882 tumor; 400 pmol dose, 37 MBq once a week for 3 weeks): complete tumor regression | mice excluded due to tumor volume over the limit of 1500 mm^3 (GIST-882 tumor; 400 pmol group): none | residual tumor (GIST-882 tumor; 400 pmol group, from day 65): no residual tumor volume | tumor volume in comparison to control group (GIST-882 tumor; 400 pmol, p = 0.0001): significantly reduced | mice excluded due to tumor volume over the limit of 1500 mm^3 (GIST-882 tumor; 800 pmol group): none | tumor volume in comparison to control group (GIST-882 tumor; 800 pmol, p = 0.0066): significantly reduced | tissue uptake at 24 h ([4]; 400 pmol group): ~11 %ID/g | tissue uptake at 24 h ([4]; 800 pmol group, p < 0.05 vs 400 pmol): ~7 %ID/g | total body weight of treated animals [5]: No change | off-target effect (inflammation, fibrosis, architecture alteration) on HES stained pancreatic sections ([5]; end of follow up): no off-target effect
